For 2 molecules, EC50, Kd and IC50 results are on record in article PMC3253889 (Proteomics, 2011).

Assay [1] addresses T1, human lymphotoxin alpha homo-trimer (LT-α3) (human, UniProt P01374). Briefly: ELISA. Background: An ELISA detects its analyte on a solid surface through an enzyme-linked reagent.
Assay [2] addresses T1, human lymphotoxin alpha homo-trimer …. Briefly: SPR. (In general: In SPR one partner is held on a chip, and binding of the other changes the refractive index at the surface.)
The target of another assay is human LT-α3-biotin (human, UniProt P01374, biotin). Briefly: ELISA.
human LT-α3-biotin, sequence (P01374 35-205): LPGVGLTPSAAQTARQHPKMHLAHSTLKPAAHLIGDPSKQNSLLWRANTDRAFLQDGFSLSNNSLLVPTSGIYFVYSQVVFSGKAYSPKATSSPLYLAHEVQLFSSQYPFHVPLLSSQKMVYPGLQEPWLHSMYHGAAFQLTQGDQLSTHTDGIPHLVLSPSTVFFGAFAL

T1 sequence (P01374 35-205): as above

B1: LT-3F12 anti-LT-α monoclonal antibody purified from mouse ascites (antibody, V domains shown)
VH: QGQLQQSGAELMKPGASVKISCKATGYTFSSYWIEWVKQRPGHGLEWIGEISPGSGSTNYNEEFKGKATFTADKSSNTAYIQLSSLTSEDSAVYYCADGYHGYWGQGTTLTVSS
VL: DIVMSQSPSSLAVSVGEKVTMSCKSSQSLLYSTNQKNFLAWYQQKPGQSPKLLIYWASTRDSGVPDRFTGSGSGTDFTLTISSVKAEDLAVYYCQQYYSYPRTFGGGTKLEIK
Take B1: a half-maximal effect in assay [1] (EC50) was put at 0.018 nM. For the same molecule, the Kd (commonly the constant that tells how readily two partners part at equilibrium) in assay [2] came to 0.3 nM. In the assay with human LT-α3-biotin, the IC50 – broadly, the concentration needed to halve the response being measured – was determined as 47 nM.

B2: LT-3F12 rescued recombinant chimeric antibody (antibody, V domains shown)
VH: B1 VH
VL: B1 VL
As to B2, it took 0.037 nM to reach a half-maximal effect in assay [1] (EC50). Further, binding in assay [2] was put at a Kd of 0.3 nM.
